Measured values taken from the DeepSol protein solubility set.

Assay: soluble on expression in E. coli; label from the status in PepcDB or PDB records

Sequence	soluble on expression in E. coli
MLRHNVPVRRDLDQIAANNGFDFHIIDNEIYWDESRAYRFTLRQIEEQIEKPTAELHQMCLEVVDRAVKDEEILTQLAIPPLYWDVIAESWRARDPSLYGRMDFAWCGNAPVKLLEYNADTPTSLYESAYFQWLWLEDARRSGIIPRDADQYNAIQERLISRFSELYSRELFYFCCCQDTDEDRSTVLYLQDCAQQAGQESRFIYIEDLGLGVGGVLTDLDDNVIQRAFKLYPLEWMMRDDNGPLLRKRREQWVEPLWKSILSNKGLMPLLWRFFPGHPNLLASWFEGEKSQIAAGESYVRKPIYSREGGNVTIFDGQNNVVDHADGDYADEPMIYQAFQPLPRFGDSYTLIGSWIVDDEACGMGIREDNTLITKDTSRFVPHYIAG	not soluble
MLRHSRHNAVFILDTAGIIMGISEGAQRSYGYTHKDVHGKYFDMLFTEESRKQQKPELELAKVLQYGTAADYNEFVHKDGRHIWTEGESLLITDVWGDSFIIKNVHSLDKEKEEQRNLQQQNEKLLRINNDLDTFVYTASHDLKNPVSNIESLVSIMQYELKHGADAEAVEPVMSRITEALNRFKTTLNELTEISRIDAPVDTDEMYVSFDSILQEVMYDVQDLVDSTEASIQSDFSAATMVRFSKKNVRSILFNLLSNALKYRSPERKPEIYIETKPAGEYILLSVRDNGIGIEPAQHKKVFQFFKRLHTHVQGTGVGMGIVKKIMDNTGGKITLESIPGKGSAFTVHFKQ	not soluble
MLRPLSKTDCPMLQEINAKALGYLVSLDLLERQYERLIEDCHHYFLAYADKDTNQLLGYVHAERYETLYASDGLNLLGLAVLPAYQRRGIGSALLRALESQARQEGIAFIRLNSASHRKEAHAFYRNLDYADDKTQLRFIKNLQGDDNDF	not soluble
MLRSLLIRATAPAVCAGLLWTAAPAHAQSPAPTRPVSSDTWADRATGTYRALQKHLYEGPGDHGLYLEHTPRQATDQEHSYLWPFREAAQAAVDMQRLPRTGPAYRQDAAERFDTAELYHTGGERPGYRSYLPAPLGTGGDVYYDDNAVVALSQLDQYEETGDARYLRRAEQVVPVVSRAWDGDAAKACPGGMDWYDAPGNTIRATNVTALSAQLAARLYEHTRNRAYLDKAEQWYGWVYACMRKAPGLYVNDRGDDGSTNETLWTYNSGAMIGTATALYRGTGDARYLEKAVADARGSLAYWTGGTRLHDQPAVFNAFYFKDLLDLDAVRPDSAYLSAMSAYADNTYRSNRDASSGLFRFQPSNGGDYDPAAPAATLNQSAMVQIFATLADATRRDHRTSLEHHHHHH	not soluble
MLRTPNNRHKIDSILVLGTAQYDGVPSRQFAARLRHAAKLWRLHEIQHVYTVGGKLPGDRFTEAEVAREYLIKEGVDPDLIFVSAVGNDTVSSYEALDPEKLGRVLIVTDPNHSYRAVRIARRMGFDAKPSPTTYSPAKFPSIVYFLTLSHEWGGVVVQDVSRLLGERVADKVEASLRAIQGLLRPSRRARHEQLRRLKKLEHHHHHH	soluble
MLSEASSVQSPTVSIRRRTCVVCGSSTLNSYVTSFTRVPDKQEQWVTVLANGDAGFEDQLKASLATGRKYICYDHFDRQYFAQRKTDDGFELIRNRNPMAFKNATFIRHVDLRSTSSFVPDDSSEEPIPAKRLKIMSDLKGRGGELDPNSMTFLMKTIFLHVKKTMEEADEARRKHEIKEELD	not soluble
MLSFRNWWAREDSNPRPPGYEPGALPTELRAHTAIRLYSNKTPLSRSVISMKKDPIKEMLVKYPRILVIKAALKILKDGNKIDRERIEKTIVKIMTKKEG	not soluble
MLSFVKELNFEINQKKYFIKIYLQPRIKYIKIKIINHQIVCLINHLKLINIAEEFIKNNKLKILKIYENDLKKIKYDEQSLDWIILLGIKFTTIKIKNNNFHCQFNFQKQIIYLYDQNQNLTNTKLLYQKILIYLAEIIFPQIIKNAQNITTLTVKKYVFGFYKSQWGVYNKIKHTIGLSYFLVHYDQDIINYVVIHELAHIKYQHHQKSFWDFVLKYCKNAKIYNNQLKFLEHHHHHH	soluble
MLSIKHLTKIYSGNKKAVDDISLDIQSGEFIAFIGTSGSGKTTALRMINRMIEATEGQIEIDGKDVRSMNPVELRRNIGYVIQQIGLMPHMTIKENIVLVPKLLKWTKEEKDKRAKELIKLVDLPESFLERYPAELSGGQQQRIGVVRALAAEQDIILMDEPFGALDPITRDTLQDLVKTLQRKLGKTFIFVTHDMDEAIKLADKICIMSEGKVVQFDTPDNILRHPANDFVRDFIGQNRLIQDRPNDKTVEGVMIKPITIQAEATLNDAVHIMRQKRVDTIFVVDSNNHLLGFLDIEDINQGIRGHKSLRDTMQQHIYTVQIDSKLQDSVRTILKRNVRNVPVVDDQQRLVGLITRANVVDIVYDTIWGDSEDTVQTEHVGEDTASSKVHEQHTTNVKVRDIGDDKS	not soluble
MLSIKQLSYALAVSKTLHFRKAADLCHVRQSTLSTGVSELERQLGIKIFERDNKKVLVTPLGREVLDKASNIMLQLEDMAHLDHSCGEP	not soluble
MLSINPNEQTEKDNYKLLTGSIIPRPVAFVTSVTKEGVLNGAPYSYFNIVAANPPLISVSVQRKAGERKDTSRNAIEKGEFVVHISDESYVAAINETAANLPPNESEIELAKLTPIESEVISVPGVKEANIRMECVLERAIPLGGTEDSPACDLLIGRVVRFHVAEHLYEKGRIHAEGLKPISRLAGHNYAKLGEQFELVRPI	soluble
MLSTVFLLATLAASAAADGYSCARNTLINPPQDLSKPYYYPETWRENMEPPQYAPNQKCNWKINVPQGMYATVIFYKKTKYEIGIQCAYPGKDLEYINDYEQSPYIFTSPQFQVDLKVGDKPGAFSFKVVWSKYPPGSAMNIELDGIHSISGVASSFYTTYTAINQVMIVGFSVPDVDTNLLRQSAIYDGDSVNAKFLGNLFDALEGQIVSTGNKLTIYTFGLENQVDNTLFMGLDTKAAGDIEQYTGLNCPVDRTRGCSIILHSYFYATAEARISRQPDYLMLPDSFPYNATLKIYGETLQDSSLFAAVNKSNYQTMFPMKVTNSLKIYHLDHDIVSIDVTNNADEAKWSTVYDGRNIKVQSMDYGRTSFYQDTMETFTTEPNTQMYFKFNVKYFDVNGPTSLAIKVYNNAKIVYSETYTATNLPTPYNVRVYGDKMDINYQTFGNYTQGFEVNIVTTKNG	not soluble
MLSVENLKVVYRGVILALDGVSLEVGEGEAVALLGPNGAGKSSLVRTIAGLLPKFEGRVLDGKVRLFGREATHLDPVGISRLGLTAILEGRPLFRYLTPVENLMAAGHRLPPKALKEGMEEVFARFPRLYERRHEQAGYLSGGEQQMLLLGMALLTRPRLLVVDEPSLGLAPKLVGEVMQTLDALRREKGLSLLLVEQNARAALGVVDRVYVLERGRVVFEGSAKEAMEDQDVMEFYLGKEEVGFRQARRYRRRKRWV	soluble
MLSYHTDIPTDLPLLRQAVEAIRREESGGAVPDSDRPRVIYEARNRLYAIRTAQGEQVVKSFRIPIAIQRVVYSFFRPSKAARSYRNAIRLGRCGIGTPRPSGYAIEREKGLLCRSYYVCESMHDCRDIRLSMQGVEGGEALLRALAGFIARMHRAGIHHIDLSPGNVLYRTDEKGEYSFYLIDLNRMKFYDKPIVGRKAYANFARLSFCPAVSKQLAEYYAEAQGLNTDGVVQGVQSESDRFFRSKVRKYARKALVREQKRMSRSAFRRAYIRYRSVRLIRKLTGCTRLFRIENDLYTSYLEVGDLRHTLKRAEGYSSPKNVQ	not soluble
MLTEDDIKEIRENREMIEQGRREPVTLYIKGVSEKDPITGEEIQGEPRKENVQLVWKKFTSVEKTKFADLDVKKGEALVTFPLNVDLENIEKIERKGVFYVIELIDERGLGGVNRREVIVKRVI	not soluble
MLTEQEKDIIKQTVPLLKEKGTEITSIFYPKMFKAHPELLNMFNQTNQKRGMQSSALAQAVMAAAVNIDNLSVIKPVIMPVAYKHCALQVYAEHYPIVGKNLLKAIQDVTGLEENDPVIQAWAKAYGVIADVFIQIEKEIYDQMMWIGFKPFKITNIKQESEDIKSFTVETEEYDFSEFTPGQYITVDVSSDKLPYRAKRHYSIVSGEKNHLTFGVKRDVTTEHEGEVSTILHDEIKEGDMINLAAPVGGFVLENTTEPQLFLGSGIGVTPLVAMYEAASAKGLDTQMVQVAENEQHLPFKDNFNSIASHHDNAKLYTHLKDKQGYIGAEELQVFLANKPEIYICGGTKFLQSMIEALKSLNYDMDRVHYETFIPRLSVAV	not soluble
